Test results from the Immune Epitope Database (IEDB).

Key:
HLA-B*83:01 = test: IEDB peptide-MHC binding, purified MHC/competitive/fluorescence; filed as Kd, often an IC50 or EC50 that approximates it; ≥ and ≤ were set here for values at or beyond the usual limits of such assays; conditions: source organism: Giardia lamblia ATCC 50803
HLA-B*15:42 = test: as above; conditions: source organism: Giardia lamblia ATCC 50803
HLA-B*45:06 = test: as above; conditions: source organism: Giardia lamblia ATCC 50803
HLA-A*01:01 [1] = test: IEDB peptide-MHC binding, purified MHC/direct/fluorescence; filed as Kd, often an IC50 or EC50 that approximates it; ≥ and ≤ were set here for values at or beyond the usual limits of such assays
HLA-A*69:01 = test: as above
HLA-A*11:01 [2] = test: as above
HLA-B*07:02 = test: as above
HLA-B*08:01 = test: as above
HLA-A*26:01 = test: as above
HLA-B*44:02 = test: as above
HLA-B*27:05 = test: as above
HLA-B*15:01 [3] = test: as above
HLA-A*03:01 [4] = test: as above
HLA-A*31:01 = test: as above
HLA-B*40:01 = test: as above
HLA-B*58:01 = test: as above
HLA-C*03:03 = test: as above
HLA-A*24:03 [5] = test: IEDB peptide-MHC binding, purified MHC/competitive/fluorescence; filed as Kd, often an IC50 or EC50 that approximates it; ≥ and ≤ were set here for values at or beyond the usual limits of such assays; conditions: source organism: Bacillus anthracis str. A2012
HLA-B*53:01 = test: IEDB peptide-MHC binding, purified MHC/competitive/radioactivity; filed as Kd, often an IC50 or EC50 that approximates it; ≥ and ≤ were set here for values at or beyond the usual limits of such assays; conditions: source organism: SARS coronavirus Tor2
HLA-B*54:01 = test: as above; conditions: source organism: SARS coronavirus Tor2
HLA-B*51:01 = test: as above; conditions: source organism: SARS coronavirus Tor2
HLA-B*35:01 [6] = test: as above; conditions: source organism: SARS coronavirus Tor2
HLA-C*07:02 = test: IEDB peptide-MHC binding, purified MHC/direct/fluorescence; filed as Kd, often an IC50 or EC50 that approximates it; ≥ and ≤ were set here for values at or beyond the usual limits of such assays
HLA-B*39:01 = test: IEDB peptide-MHC binding, purified MHC/competitive/fluorescence; filed as Kd, often an IC50 or EC50 that approximates it; ≥ and ≤ were set here for values at or beyond the usual limits of such assays; conditions: source organism: Mammarenavirus juninense
HLA-A*02:01 [7] = test: IEDB peptide-MHC binding, purified MHC/direct/fluorescence; filed as Kd, often an IC50 or EC50 that approximates it; ≥ and ≤ were set here for values at or beyond the usual limits of such assays
HLA-B*18:01 = test: as above; conditions: source organism: Mammarenavirus juninense
HLA-B*57:01 = test: as above; conditions: source organism: Mammarenavirus juninense
HLA-A*29:02 = test: as above; conditions: source organism: Mammarenavirus juninense
HLA-B*48:01 = test: as above; conditions: source organism: Mammarenavirus juninense
HLA-B*46:01 = test: as above; conditions: source organism: Mammarenavirus juninense
HLA-A*01:01 [8] = test: IEDB peptide-MHC binding, purified MHC/competitive/fluorescence; ≥ and ≤ were set here for values at or beyond the usual limits of such assays
HLA-A*11:01 [9] = test: as above; conditions: source organism: Zaire ebolavirus
HLA-A*02:01 [10] = test: as above
HLA-B*15:01 [11] = test: as above; conditions: source organism: Zaire ebolavirus
HLA-A*03:01 [12] = test: as above; conditions: source organism: Zaire ebolavirus
HLA-A*24:02 = test: as above; conditions: source organism: Zaire ebolavirus
HLA-A*30:01 = test: IEDB peptide-MHC binding, purified MHC/direct/fluorescence; filed as Kd, often an IC50 or EC50 that approximates it; ≥ and ≤ were set here for values at or beyond the usual limits of such assays
HLA-A*24:03 [13] = test: as above
HLA-B*35:01 [14] = test: as above; conditions: source organism: Escherichia coli O157:H7
[15] = source organism: Giardia lamblia ATCC 50803
[16] = source organism: Mammarenavirus juninense
[17] = source organism: Zaire ebolavirus
[18] = source organism: Camelpox virus CMS
[19] = source organism: Escherichia coli O157:H7
[20] = source organism: Brucella abortus 2308
[21] = source organism: Sudan ebolavirus
[22] = source organism: Yellow fever virus

Sequence: AEFPVGSTA
- Kd (HLA-B*83:01): ≥ 5 µM
- Kd (HLA-B*15:42): ≥ 5 µM
- Kd (HLA-B*45:06): ≥ 5 µM
- Kd (HLA-A*01:01 [1]; [15]): ≥ 20 µM
- Kd (HLA-A*69:01; [15]): ≥ 20 µM
- Kd (HLA-A*11:01 [2]; [15]): ≥ 20 µM
- Kd (HLA-B*07:02; [15]): ≥ 20 µM
- Kd (HLA-B*08:01; [15]): ≥ 20 µM
- Kd (HLA-A*26:01; [15]): ≥ 20 µM
- Kd (HLA-B*44:02; [15]): ≥ 20 µM
- Kd (HLA-B*27:05; [15]): ≥ 20 µM
- Kd (HLA-B*15:01 [3]; [15]): ≥ 20 µM
- Kd (HLA-A*03:01 [4]; [15]): ≥ 20 µM
- Kd (HLA-A*31:01; [15]): ≥ 20 µM
- Kd (HLA-B*40:01; [15]): 0.41 µM
- Kd (HLA-B*58:01; [15]): ≥ 20 µM

Sequence: FAKPAGTPM
- Kd (HLA-C*03:03; source organism: Burkholderia cenocepacia HI2424): ≤ 0.001 µM

Sequence: FFSPVIASL
- Kd (HLA-A*24:03 [5]): ≤ 0.0001 µM
- Kd (HLA-C*03:03; source organism: Bacillus anthracis str. A2012): ≤ 0.001 µM

Sequence: FPREGVFVF
- Kd (HLA-B*53:01): 0.00536 µM
- Kd (HLA-B*54:01): 0.0925 µM
- Kd (HLA-B*51:01): 0.0314 µM
- Kd (HLA-B*35:01 [6]): 0.000684 µM
- Kd (HLA-B*07:02; source organism: SARS-CoV1): 0.131 µM
- Kd (HLA-B*08:01; source organism: SARS-CoV1): 0.116 µM
- Kd (HLA-C*07:02; source organism: SARS-CoV1): 0.51 µM
- Kd (HLA-B*15:01 [3]; source organism: SARS-CoV1): 2.14 µM

Sequence: FRRVAHSSL
- Kd (HLA-B*39:01): 0.377 µM
- Kd (HLA-A*01:01 [1]; [16]): ≥ 20 µM
- Kd (HLA-A*69:01; [16]): ≥ 20 µM
- Kd (HLA-A*02:01 [7]; [16]): ≥ 20 µM
- Kd (HLA-B*18:01): ≥ 20 µM
- Kd (HLA-B*57:01): ≥ 20 µM
- Kd (HLA-B*44:02; [16]): ≥ 20 µM
- Kd (HLA-C*07:02; [16]): 0.053 µM
- Kd (HLA-B*15:01 [3]; [16]): ≥ 20 µM
- Kd (HLA-A*29:02): ≥ 20 µM
- Kd (HLA-A*03:01 [4]; [16]): ≥ 20 µM
- Kd (HLA-A*31:01; [16]): ≥ 20 µM
- Kd (HLA-B*48:01): ≥ 20 µM
- Kd (HLA-B*58:01; [16]): ≥ 20 µM
- Kd (HLA-B*46:01): ≥ 20 µM

Sequence: GSYGEYQSY
- IC50 (HLA-A*01:01 [8]; [17]): 9.91 µM
- IC50 (HLA-A*11:01 [9]): 1.29 µM
- IC50 (HLA-A*02:01 [10]; [17]): ≥ 154 µM
- IC50 (HLA-B*15:01 [11]): 3.51 µM
- IC50 (HLA-A*03:01 [12]): 26.1 µM

Sequence: GTNETEYLF
- IC50 (HLA-A*01:01 [8]; [17]): ≥ 373 µM
- IC50 (HLA-A*02:01 [10]; [17]): 20.9 µM
- IC50 (HLA-A*24:02): 8.71 µM

Sequence: HYRPYHYYH
- Kd (HLA-A*11:01 [2]; [18]): ≥ 20 µM
- Kd (HLA-A*30:01; [18]): 0.023 µM
- Kd (HLA-C*07:02; [18]): 0.013 µM
- Kd (HLA-A*03:01 [4]; [18]): ≥ 20 µM
- Kd (HLA-A*31:01; [18]): 0.0032 µM

Sequence: ITAGYNRYY
- Kd (HLA-A*01:01 [1]; [19]): 0.535 µM
- Kd (HLA-A*69:01; [19]): ≥ 20 µM
- Kd (HLA-A*24:03 [13]; [19]): ≥ 20 µM
- Kd (HLA-A*11:01 [2]; [19]): 2.56 µM
- Kd (HLA-A*30:01; [19]): 2.13 µM
- Kd (HLA-B*07:02; [19]): ≥ 20 µM
- Kd (HLA-B*08:01; [19]): ≥ 20 µM
- Kd (HLA-A*02:01 [7]; [19]): ≥ 20 µM
- Kd (HLA-A*26:01; [19]): 0.205 µM
- Kd (HLA-B*35:01 [14]): 0.861 µM
- Kd (HLA-B*44:02; [19]): ≥ 20 µM
- Kd (HLA-B*27:05; [19]): ≥ 20 µM
- Kd (HLA-B*15:01 [3]; [19]): 0.108 µM
- Kd (HLA-A*03:01 [4]; [19]): 3.25 µM
- Kd (HLA-A*31:01; [19]): ≥ 20 µM
- Kd (HLA-B*40:01; [19]): ≥ 20 µM
- Kd (HLA-B*58:01; [19]): 4.05 µM

Sequence: KQLEYSWVL
- Kd (HLA-C*03:03; source organism: Brucella canis ATCC 23365): ≥ 20 µM
- Kd (HLA-A*69:01; [20]): 0.846 µM
- Kd (HLA-A*02:01 [7]; [20]): 0.0017 µM

Sequence: TTIEDILPK
- Kd (HLA-A*01:01 [1]; [15]): ≥ 20 µM
- Kd (HLA-A*69:01; [15]): ≥ 20 µM
- Kd (HLA-A*24:03 [13]; [15]): ≥ 20 µM
- Kd (HLA-A*11:01 [2]; [15]): 0.0092 µM
- Kd (HLA-A*30:01; [15]): 0.471 µM
- Kd (HLA-B*07:02; [15]): ≥ 20 µM
- Kd (HLA-B*08:01; [15]): ≥ 20 µM
- Kd (HLA-A*02:01 [7]; [15]): ≥ 20 µM
- Kd (HLA-A*26:01; [15]): 0.478 µM
- Kd (HLA-B*44:02; [15]): ≥ 20 µM
- Kd (HLA-B*27:05; [15]): ≥ 20 µM
- Kd (HLA-B*15:01 [3]; [15]): ≥ 20 µM
- Kd (HLA-A*03:01 [4]; [15]): 2.84 µM
- Kd (HLA-A*31:01; [15]): 2.09 µM
- Kd (HLA-B*40:01; [15]): ≥ 20 µM
- Kd (HLA-B*58:01; [15]): ≥ 20 µM

Sequence: VSYEAGEWA
- IC50 (HLA-A*01:01 [8]; [21]): 50.3 µM
- IC50 (HLA-A*02:01 [10]; [21]): 15 µM

Sequence: YLIIGILTL
- Kd (HLA-C*03:03; [22]): 0.018 µM
- Kd (HLA-A*69:01; [22]): ≥ 20 µM
